Measurements from patent US20240034784A1 (published 2024).

Key:
[1] = biological target: hClaudin18.2 (human, UniProt P56856 1-261); assay: FACS
[2] = biological target: CLDN18.2 (human, UniProt P56856 1-261); assay: FACS

B1: IMAB362 (antibody, V domains shown)
VH: QVQLQQPGAELVRPGASVKLSCKASGYTFTSYWINWVKQRPGQGLEWIGNIYPSDSYTNYNQKFKDKATLTVDKSSSTAYMQLSSPTSEDSAVYYCTRSWRGNSFDYWGQGTTLTVSS
VL: DIVMTQSPSSLTVTAGEKVTMSCKSSQSLLNSGNQKNYLTWYQQKPGQPPKLLIYWASTRESGVPDRFTGSGSGTDFTLTISSVQAEDLAVYYCQNDYSYPFTFGSGTKLEIKR
- EC50 [1]: 6.72 nM
- EC50 [2]: 19.1 nM
